Consider 91 sequences from the supplement of paper PMC9112550, “Optimization of the antimicrobial peptide Bac7 by deep mutational scanning” (BMC Biology, 2022).

This data set relates to Escherichia coli TOP10. Put plainly: shrunken log2 fold change of peptide-encoding DNA abundance (4.5 h post-induction vs induction); higher = less antimicrobial activity (less host growth inhibition). To be noted: time post-induction: 4.5 h; library: site-saturation at positions 5, 18, 19, 20.
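Further: peptides expressed intracellularly from a pBAD plasmid library in pooled LB shake-flask culture, induced with 0.3% L-arabinose, DNA abundance read by NGS, three biological replicates, DESeq2 with apeglm shrinkage.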

Consider RRIRARPPRLPRPRPRPYKFPRP, for which the “shrunken log2 fold change” value was -0.279.

On to RRIRHRPPRLPRPRPRPVETPRP, for which the “shrunken log2 fold change” value amounted to 0.0401.

In the case of RRIRYRPPRLPRPRPRPDMEPRP, the “shrunken log2 fold change” value was -0.0135.

Turning to RRIRCRPPRLPRPRPRPSSCPRP, the “shrunken log2 fold change” value is -0.211.

Take RRIRERPPRLPRPRPRPGMAPRP: the “shrunken log2 fold change” value worked out at 0.188.

With RRIRWRPPRLPRPRPRPTYEPRP, the “shrunken log2 fold change” value came out at 0.207.

Turning to RRIRDRPPRLPRPRPRPKITPRP, the “shrunken log2 fold change” value was -0.375.

On to RRIRWRPPRLPRPRPRPSWYPRP, for which the “shrunken log2 fold change” value is -0.239.

In the case of RRIRLRPPRLPRPRPRPYGGPRP, the “shrunken log2 fold change” value is -0.0286.

Take RRIRIRPPRLPRPRPRPARGPRP: the “shrunken log2 fold change” value is 0.624.

For the sequence RRIRHRPPRLPRPRPRPFSAPRP, the “shrunken log2 fold change” value was -0.186.

In the case of RRIRDRPPRLPRPRPRPCNEPRP, the “shrunken log2 fold change” value is -0.0633.

Consider RRIRIRPPRLPRPRPRPLCVPRP, for which the “shrunken log2 fold change” value is -0.551.

Take RRIRNRPPRLPRPRPRPTCHPRP: the “shrunken log2 fold change” value is -0.643.

As to RRIRPRPPRLPRPRPRPGLWPRP, the “shrunken log2 fold change” value came out at 0.341.

In the case of RRIRGRPPRLPRPRPRPEFIPRP, the “shrunken log2 fold change” value was 0.131.

Turning to RRIRTRPPRLPRPRPRPGRTPRP, the “shrunken log2 fold change” value was -0.0318.

As to RRIRQRPPRLPRPRPRPCLCPRP, the “shrunken log2 fold change” value was -0.294.

Consider RRIRNRPPRLPRPRPRPQRIPRP, for which the “shrunken log2 fold change” value was -0.47.

As to RRIRSRPPRLPRPRPRPYRIPRP, the “shrunken log2 fold change” value is 0.123.

For RRIRGRPPRLPRPRPRPPRDPRP, the “shrunken log2 fold change” value worked out at 1.12.

As for RRIRQRPPRLPRPRPRPHPHPRP, the “shrunken log2 fold change” value is -0.136.

For the sequence RRIRNRPPRLPRPRPRPDIMPRP, the “shrunken log2 fold change” value was -0.039.

In the case of RRIRSRPPRLPRPRPRPGQFPRP, the “shrunken log2 fold change” value is -0.112.

RRIRNRPPRLPRPRPRPNWCPRP: the “shrunken log2 fold change” value is 0.23.

As for RRIRCRPPRLPRPRPRPELTPRP, the “shrunken log2 fold change” value was determined as 0.0136.

For RRIRERPPRLPRPRPRPIDTPRP, the “shrunken log2 fold change” value is -0.113.

As to RRIRRRPPRLPRPRPRPIYEPRP, the “shrunken log2 fold change” value was 0.0785.

Take RRIRNRPPRLPRPRPRPNACPRP: the “shrunken log2 fold change” value was -0.0239.

Take RRIRKRPPRLPRPRPRPFFYPRP: the “shrunken log2 fold change” value turned out to be 0.0957.

RRIRWRPPRLPRPRPRPLMMPRP: the “shrunken log2 fold change” value is 0.0198.

In the case of RRIRIRPPRLPRPRPRPIHMPRP, the “shrunken log2 fold change” value was -0.379.

Turning to RRIRPRPPRLPRPRPRPVTRPRP, the “shrunken log2 fold change” value is -0.0129.

Turning to RRIRPRPPRLPRPRPRPGKVPRP, the “shrunken log2 fold change” value is -0.0669.

Regarding RRIRRRPPRLPRPRPRPFLMPRP, the “shrunken log2 fold change” value stood at 0.0572.

Turning to RRIRPRPPRLPRPRPRPRKKPRP, the “shrunken log2 fold change” value was found to be 0.0638.

Turning to RRIRKRPPRLPRPRPRPFNVPRP, the “shrunken log2 fold change” value is -0.172.

Regarding RRIRWRPPRLPRPRPRPMRYPRP, the “shrunken log2 fold change” value was -0.0679.

With RRIRERPPRLPRPRPRPQSTPRP, the “shrunken log2 fold change” value was -0.319.

Consider RRIRSRPPRLPRPRPRPIMKPRP, for which the “shrunken log2 fold change” value is -0.292.

For RRIRLRPPRLPRPRPRPWATPRP, the “shrunken log2 fold change” value is -0.0496.

In the case of RRIRERPPRLPRPRPRPPRSPRP, the “shrunken log2 fold change” value came out at 0.375.

In the case of RRIRMRPPRLPRPRPRPVCTPRP, the “shrunken log2 fold change” value stood at 0.479.

RRIRARPPRLPRPRPRPDNRPRP: the “shrunken log2 fold change” value amounted to 0.0425.

Consider RRIRNRPPRLPRPRPRPKLNPRP, for which the “shrunken log2 fold change” value is -0.208.

As for RRIRSRPPRLPRPRPRPMIKPRP, the “shrunken log2 fold change” value was -0.464.

Take RRIRIRPPRLPRPRPRPGQGPRP: the “shrunken log2 fold change” value is -0.257.

As to RRIRHRPPRLPRPRPRPWAMPRP, the “shrunken log2 fold change” value was -0.00884.

Consider RRIRSRPPRLPRPRPRPQSKPRP, for which the “shrunken log2 fold change” value is -0.0711.

Consider RRIRTRPPRLPRPRPRPQMHPRP, for which the “shrunken log2 fold change” value was -0.426.

Turning to RRIRRRPPRLPRPRPRPTCKPRP, the “shrunken log2 fold change” value came to 0.0874.

As for RRIRMRPPRLPRPRPRPYAMPRP, the “shrunken log2 fold change” value was -0.155.

For the sequence RRIRLRPPRLPRPRPRPCRSPRP, the “shrunken log2 fold change” value was -0.0599.

As for RRIRKRPPRLPRPRPRPALIPRP, the “shrunken log2 fold change” value stood at 0.2.

Take RRIRPRPPRLPRPRPRPYCHPRP: the “shrunken log2 fold change” value is -0.241.

Regarding RRIRSRPPRLPRPRPRPDVWPRP, the “shrunken log2 fold change” value was determined as 0.49.

Turning to RRIRCRPPRLPRPRPRPVCMPRP, the “shrunken log2 fold change” value was -0.119.

Turning to RRIRWRPPRLPRPRPRPNEMPRP, the “shrunken log2 fold change” value was -0.078.

Take RRIRDRPPRLPRPRPRPRYTPRP: the “shrunken log2 fold change” value was -0.219.

As to RRIRERPPRLPRPRPRPYPIPRP, the “shrunken log2 fold change” value is 0.113.

For the sequence RRIRTRPPRLPRPRPRPYNPPRP, the “shrunken log2 fold change” value was -0.224.

In the case of RRIRTRPPRLPRPRPRPFPFPRP, the “shrunken log2 fold change” value is -0.406.

RRIRGRPPRLPRPRPRPCKEPRP: the “shrunken log2 fold change” value was -0.0407.

With RRIRCRPPRLPRPRPRPEWGPRP, the “shrunken log2 fold change” value is 0.163.

Consider RRIRNRPPRLPRPRPRPFPMPRP, for which the “shrunken log2 fold change” value was -0.0139.

As for RRIRFRPPRLPRPRPRPCALPRP, the “shrunken log2 fold change” value is -0.554.

Regarding RRIRYRPPRLPRPRPRPMNAPRP, the “shrunken log2 fold change” value is -0.00745.

As for RRIRDRPPRLPRPRPRPNTGPRP, the “shrunken log2 fold change” value was -0.098.

As for RRIRGRPPRLPRPRPRPRDMPRP, the “shrunken log2 fold change” value amounted to 0.339.

Turning to RRIRIRPPRLPRPRPRPTPQPRP, the “shrunken log2 fold change” value was -0.117.

Consider RRIRCRPPRLPRPRPRPRSVPRP, for which the “shrunken log2 fold change” value was 0.318.

Consider RRIRPRPPRLPRPRPRPMLQPRP, for which the “shrunken log2 fold change” value is -0.105.

As for RRIRARPPRLPRPRPRPMCSPRP, the “shrunken log2 fold change” value is 0.334.

Take RRIRRRPPRLPRPRPRPQKAPRP: the “shrunken log2 fold change” value stood at 0.0122.

Regarding RRIRGRPPRLPRPRPRPFPSPRP, the “shrunken log2 fold change” value turned out to be 0.142.

As for RRIRMRPPRLPRPRPRPVKWPRP, the “shrunken log2 fold change” value is 0.0346.

RRIRDRPPRLPRPRPRPDSQPRP: the “shrunken log2 fold change” value is -0.0289.

As to RRIRLRPPRLPRPRPRPYWNPRP, the “shrunken log2 fold change” value was -1.03.

As for RRIRIRPPRLPRPRPRPRAHPRP, the “shrunken log2 fold change” value is -0.201.

Consider RRIRCRPPRLPRPRPRPQQLPRP, for which the “shrunken log2 fold change” value is -0.054.

Consider RRIRTRPPRLPRPRPRPCCDPRP, for which the “shrunken log2 fold change” value was -0.151.

Regarding RRIRGRPPRLPRPRPRPAHSPRP, the “shrunken log2 fold change” value is 0.0755.

Regarding RRIRWRPPRLPRPRPRPEAPPRP, the “shrunken log2 fold change” value worked out at 1.01.

In the case of RRIRERPPRLPRPRPRPNVQPRP, the “shrunken log2 fold change” value was -0.403.

As to RRIRPRPPRLPRPRPRPDHEPRP, the “shrunken log2 fold change” value was 0.0217.

RRIRWRPPRLPRPRPRPFPHPRP: the “shrunken log2 fold change” value is 0.29.

As for RRIRLRPPRLPRPRPRPNFEPRP, the “shrunken log2 fold change” value turned out to be 0.0189.

Turning to RRIRSRPPRLPRPRPRPSQCPRP, the “shrunken log2 fold change” value is -0.265.

For the sequence RRIRDRPPRLPRPRPRPDRDPRP, the “shrunken log2 fold change” value was -0.0722.

For the sequence RRIRDRPPRLPRPRPRPCPMPRP, the “shrunken log2 fold change” value was -0.292.

As for RRIRWRPPRLPRPRPRPYPQPRP, the “shrunken log2 fold change” value was -0.361.
